Here are results for 23 molecules from patent US20260258115A1 (MAPP BIOPHARMACEUTICAL, published 2026).

Substitutions are numbered along the chain they refer to.

Assay [1] concerns the target T1, RSV postfusion F (postF), subtype A (respiratory syncytial virus subtype A, UniProt P03420 26-513).
T1 construct: also called Postfusion subtype A; F deltaFP
As to the kind of experiment: BLI. In general terms: In BLI a coated tip is dipped into the sample, and binding shifts an interference pattern.

In assay [2] the target is RSV prefusion F (preF), subtype B (respiratory syncytial virus, subtype B). As to the kind of experiment: BLI, IgG.

B1: ADI-19435 (antibody, V domains shown)
VH: QVQLQESGPGLVKPSQTLSLTCTVSGGSISSGSYYWSWIRQPAGKGLEWIGRIYTSGSTNYNPSLKSRVTISVDTSKNQFSLKLSSVTAADTAVYYCAREGRGGAFDIWGQGTLVTVSS
VL: SYELTQPPSVSVSPGQTARITCSADALPKQYAYWYQQKPGQAPVLVIYKDSERPSGIPERFSGSSSGTTVTLTISGVQAEDEADYYCQSADSSGTYVVFGGGTQLTVL
notes: full-length IgG
Turning to B1, the binding result in assay [1] was “no binding”.

B2: ADI-20987 (antibody, V domains shown)
VH: QVQLVQSGGGVVHPGRSLRLSCAASGFSFSDYGMHWVRQAPGKGLEWVAVIWYDGINKYYADSVKGRFAISRDNSKNTLYLQMNSLRAGDTAVYYCARGGIAAAQRYFDYWGQGTLVTVSS
VL: ETTLTQSPGTLSLSPGERATLSCRASQTVSSSNLAWYQQKPGQAPRLLIYGASSRATGIPDRFSGSGSGTDFTLTISRLEPEDFAVYYCQQSGTSFGQGTKVDIK
Broadly, the Kd is the free concentration of one partner at which half of the binding sites on the other are occupied at equilibrium, for simple one-to-one binding. Low values mean higher affinity, high ones lower affinity. In assay [2], B2 displayed a Kd of 35.6 nM.

B3: ADI-21057 (antibody, V domains shown)
VH: QVQLVQSGAEVKKPGESLKISCKASGYSLSNNWIAWVRQMPGKGLEWMGIVYLGDSDARYSPSFQGQVTFSADKSISTAYLQWSSLQASDTAMYFCARHHGDLVVTSDSRYFYGLDVWGQGTTVTVSS
VL: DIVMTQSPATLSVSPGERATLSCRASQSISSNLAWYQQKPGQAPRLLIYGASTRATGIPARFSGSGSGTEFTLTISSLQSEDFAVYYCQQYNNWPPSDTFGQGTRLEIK
The molecule B3 came in with a Kd in assay [2] of 0.86 nM. This Kd is about 41-fold lower than that of the molecule before.

B4: ADI-20980 (antibody, V domains shown)
VH: QVQLQESGPGLVKPSQTLSLTCSVSGGSVSSGDYYWTWIRQPAGKGLEWIGRIYNSGGTDYSPSLKSRVTISVDTSKNQFSLKLSSVTAADTAVYYCARGRGYYESPWGQGTLVTVSS
VL: EIVLTQSPATLSLSPGERATLSCRASQSVGIYIGWYQQKPGQAPRLLMYDASNRATGIPDRFSGSGSGTDFSLTISSLEPEDFAVYYCQLRSKWLTFGPGTKVEIK
Regarding B4, the Kd in assay [2] is 0.542 nM.

B5: ADI-20966 (antibody, V domains shown)
VH: EVQLLESGGGLGKPGGSLRLSCAASGFKLSSYYMHWVRQAPGKGPEWVSSISASSSYINYADSVRGRFTVSRDNAKNSLFLQMNSLRVDDTAIYYCARGAPLTNFGMVLDSWGQGTLVTVSS
VL: QSVLTQPPSVSGAPGQRVTISCTGSGSNIGAGYDVHWYQQVPGRVPKLLIYANNNRPSGVPDRFSGSKSGTSASLAITGLQADDEADYYCQSYDRSLNVVFGGGTKLTVL
In assay [2], B5 returned a Kd of 0.862 nM.

B6: ADI-20984 (antibody, V domains shown)
VH: EVQLLETGAEVKKPGASVKVSCHVSGYGLTDLSMHWVRQAPGKRLQWMGSFDPQYGETIDTQNFQGRVTMTVDTSTATLYMQLSGLRSEDTAMYYCATPQSTGALDNWGQGTLVTVSS
VL: DIRVTQSPSSLSASVGDRVTITCRASQSISSYLSWYQQKPGKAPRLVIFAASNLQSGVPSRFSGTGSSRFSDSGSWTDFTLTISSLQPEDFAIYYCQQTYITPFTFGQGTKVDIK
B6 came in with an equilibrium dissociation constant (Kd) in assay [2] of 20.2 nM.

B7: ADI-21015 (antibody, V domains shown)
VH: QVQLVQSGAEVKKPGASVRVSCKVPGNTLSDLSMHWVRHTPGEGLEWMGSFDPEYGETIPAQRFQGRVTMTEDTSTDTAYMELTSLRFEDTAVYYCAAPHASGALQHWGQGTLVTVSS
VL: DIVMTQSPSSLSASVGDRVTITCRASQIISAYLNWYQQKAGKAPKLLIYAASSLQSGVPSRFSGSGSGTDFTLTISSLQPEDFATYYCQQTYITPFTFGQGTKLEIK
In turn, B7 showed a Kd in assay [2] of 32.4 nM. Compared with the last molecule, the Kd is about 1.6-fold higher.

B8: ADI-25588 (antibody, V domains shown)
VH: EVQLVESGGGLVKPGGSLRLSCAASGFTFSSYSMNWVRQAPGKGLEWVSSISSSSSYIYYADSVKGRFTISRDNAKNSLYLQMNSLRAEDTAVYYCARYSSSLGAFDIWGQGTTVTVSS
VL: QSVLTQPPSVSGAPGQRVTISCTGSSSNIGAGYDVHWYQQLPGTAPKLLIYGNSNRPSGVPDRFSGSKSGTSASLAITGLQAEDEADYYCQSYDSSLSDVFGTGTKVTVL
notes: full-length IgG
As to B8, the binding result in assay [1] is “no binding”.

B9: ADI-21049 (antibody, V domains shown)
VH: EVQLVESGGGLVKPGGSLRLSCSASGFAFSSYSMNWVRQAPGKGLEWVSSISASSSYIFYADSVKGRFTISRDNAKNSLYLQMNSLRAEDTAFYYCARALSPGYGDYRDYWGQGTLVTVSS
VL: B8 VL with L4V, T44A, S54N, Y88F, S95H, S96N, D99V, T103G, V107L
Turning to B9, the dissociation constant (Kd) in assay [2] was determined as 1.27 nM.

B10: ADI-22767 (antibody, V domains shown)
VH: B8 VH with E1Q, Y99E, S100A, S101N, S102W, L103G, G104V, T114M
VL: B8 VL with L4V, D99Y
notes: full-length IgG
As to B10, in assay [1], the binding result is reported as “no binding”.

B11: ADI-20998 (antibody, V domains shown)
VH: QVQLVQSGGGVVQPGRSLRLSCAASGFTLSTYGMHWVRQAPGKGLEWVAVIYYDESNKFYADSVQGRFTISRDDSKNTLFLQMNSLRAEDTAVYYCARESRPRGYSYSDFDSWGQGTLVTVSS
VL: QPGLTQPRSVSGSPGQSVTISCTGTSSDVGTFNYVSWYQQHPGKAPKLMIYDVNQRPSGVPDRFSGSKSGNTASLTISGLQAEDEADYYCCAYAGYYSFGGGTKLTVL
In assay [2], B11 had a dissociation constant (Kd) of 1.35 nM.

B12: ADI-21028 (antibody, V domains shown)
VH: EVQLVESGGALVKPGGSLRLSCVASGFTFSDYYMHWVRQAPGKGLEWVSYISSTSSFTNYADSVKGRFIISRDNAKNSLYLQLNSLRAEDTAVYYCARDESSGWQTRRHFGMDVWGQGTLVTVSS
VL: EIVMTQSPSTLSASVGDRVTITCRASQSLNTWLAWYQHKPGKAPKLLISTASSLQSGVPSRFSASGSGTEFTLTISSLQPDDFATYYCQQFRGTFGPGTKVEIK
For B12, binding in assay [2] was put at a Kd of 3.33 nM.

B13: ADI-21005 (antibody, V domains shown)
VH: EVQLVESGGAVVQPGGSLRLSCVASGLAFDEYTMHWVRQSSAKGLEWISLISWNGGITYYADSVKGRFTISRDNSKNSLYLQMNSLRTEDTATYFCARLGYGSGSDYGDDYWGQGTLVTVSS
VL: ETTLTQSPGTLSLSPGERATLSCRASQSVSNNYLAWYQQKPGQAPRLLIHGASTRVTGIPARFSGSGSGTDFTLTISRLEPEDFAVYYCHQYHSSPRTFGQGTKVDIK
In assay [2], B13 returned an equilibrium dissociation constant (Kd) of 7.7 nM.

B14: ADI-19455 (antibody, V domains shown)
VH: EVQLVESGGGLVKPGGSLRLSCAASGFTFSSYSMNWVRQAPGKGLEWVSSISSSSSYIYYADSVKGRFTISRDNAKNSLYLQMNSLRAEDTAVYYCARSQSGSYYSSDYWGQGTLVTVSS
VL: QSVLTQPPSVSGAPGQRVTISCTGSSSNIGAGYDVHWYQQLPGTAPKLLIYGNSNRPSGVPDRFSGSKSGTSASLAITGLQAEDEADYYCQSYDSSLSGWVFGGGTKVTVL
notes: full-length IgG
As to B14, the binding result in assay [1] is reported as “no binding”.

B15: ADI-25496 (antibody, V domains shown)
VH: QVQLVQSGGGLVKPGGSLRLSCAASGFTFSSYSMNWVRQAPGKGLEWVSSISSSSSYIYYADSVKGRFTISRDNAKNSLYLQMNSLRAEDTAVYYCARVASEVWFFDLWGRGTLVTVSS
VL: B14 VL with S2P, W100Y, G104T, V108L
notes: full-length IgG
As to B15, in assay [1], the binding result is recorded as “no binding”.

B16: ADI-21018 (antibody, V domains shown)
VH: EVQLLESGGGLVKPGGSLRLSCAGSGFTLSSYGMNWVRQAPGQGLEWISSISSSSSYINYADSVKGRFTISRDNAQNSLYLQLNSLRAEDTAVYYCARGGLGYDYGLGSYTYADYWGQGTLVTVSS
VL: B14 VL with L4V, I29T, V35I, A45G, S54K
B16: binding in assay [2] was characterised by a dissociation constant (Kd) of 0.366 nM. This counts as sub-nanomolar.

B17: ADI-19429 (antibody, V domains shown)
VH: EVQLQESGPGLVKPSETLSLTCTVSGGSISSSSYYWGWIRQPPGKGLEWIGSIYYSGSTYYNPSLKSRVTISVDTSKNQFSLKLSSVTAADTAVYYCARTPLYSYGRVVGFYYYGMDVWGQGTTVTVSS
VL: B14 VL with V108L
For the molecule B17, the binding result in assay [1] was “no binding”.

B18: ADI-25595 (antibody, V domains shown)
VH: B14 VH with S99Y, G102S, Y104W, S106Y, S107F
VL: B14 VL with Q1S, S2Y, W100V, V108L
notes: full-length IgG; also called Ab 464
In the case of B18, the binding result in assay [1] is reported as “no binding”.

B19: ADI-20978 (antibody, V domains shown)
VH: EVQLVESGAEVKKPGASVKVSCKASGYTFGNYGISWVRQAPGQGLEWMGWISAYNGNSNYAQKFQGRVTMTTDTSASTAYMEVRSLRSDDTAVYYCARDVPVTAARLLDYWGQGTLVTVSS
VL: DIVLTQTPLSLPVTLGQPASISCRSSQSLVYSDGNTYLSWFQQRPGQSPRRLIYKVSNRDSGVPDRFSGSGSGTDFTLKISRVEAEDVGVYYCMQATDWLGYTFGQGTKLEIK
Take B19: the affinity in assay [2], expressed as Kd, was 0.319 nM.

B20: ADI-21013 (antibody, V domains shown)
VH: QVQLQESGPGVVKPSETLSLTCTVSGGSISNTHSYWGWIRQSPGKGLEWIGSIYYTGSTYYNPSFRSRVTLSVDTSKNQFSLKLSSVTAADTAVYYCAAPDYFVLTDYKSTFDYWGRGALVTVSS
VL: DIVMTQSPGTLSLSPGGRATLSCRASQSVGSSSLAWYQQKPGQAPRLLIYGASSRAAGIPDRFSGSGSGTDFTLTINRLEPEDFAMYYCQQYGSSPLTFGGGTKVEIK
With B20, in assay [2], the equilibrium dissociation constant (Kd) turned out to be 1.79 nM.

B21: ADI-14603 (antibody, V domains shown)
VH: QVQLVQSGAEVKKPGESLKISCKGSGYTFTNYWIGWVRQMPGKGLEWMGIIYPGDSDTRYSPSFQGQVTISADKSITTAYLQWRVLKASDTAMYYCATMRGSSSHFHHWGQGTLVTVSS
VL: DIQVTQSPSSLSASVGDRVTITCRAGQGIGNYLAWYQQKPGKVPKVLIYAASTLQSGVPSRFSGSGSGTEFTLTISSLQPEDVATYYCQKYNNAPYAFGQGTRLEIK
notes: also called Ab 131
Turning to B21, binding in assay [2] was characterised by a dissociation constant (Kd) of 30.5 nM.

B22: ADI-21058 (antibody, V domains shown)
VH: QVQLQESGPGLVKPSETLSLTCTVSGGSISGTTYYWAWIRQPPGKGLEWIGTIFYSGSTYYNPSLQSRVTTSVDASKNQMSLRLSSVTAADTAMYYCARHTSIYDNLTGFYSHLTGVLDMWGQGTMVTVSS
VL: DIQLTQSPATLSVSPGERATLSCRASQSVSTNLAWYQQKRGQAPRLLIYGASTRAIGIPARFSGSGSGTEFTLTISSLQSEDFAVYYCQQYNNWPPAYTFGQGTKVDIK
Turning to B22, in assay [2], binding was characterised by a dissociation constant (Kd) of 0.515 nM.

B23: ADI-19441 (antibody, V domains shown)
VH: QVQLVQSGAEVKKPGSSVKVSCKASGGTFSSYAISWVRQAPGQGLEWMGRIIPILGIANYAQKFQGRVTITADKSTSTAYMELSSLRSEDTAVYYCARGPLTGYSSSWFDPWGQGTLVTVSS
VL: EIVMTQSPSSLSASVGDRVTITCRASQSISSYLNWYQQKPGKAPKLLIYAASSLQSGVPSRFSGSGSGTDFTLTISSLQPEDFATYYCQQSYSTLPYTFGQGTKVEIK
notes: full-length IgG
Regarding B23, the binding result in assay [1] was “no binding”.
